Test results as given in patent US20220033519A1 (NATIONAL RESEARCH COUNCIL OF CANADA, published 2022).

T1: soluble and secreted FUT8 (sFUT8) enzyme (aa 87-575; UniProtKB #Q9BYC5) with C-terminal polyhistidine tag (UniProt Q9BYC5 87-575)
T1 sequence: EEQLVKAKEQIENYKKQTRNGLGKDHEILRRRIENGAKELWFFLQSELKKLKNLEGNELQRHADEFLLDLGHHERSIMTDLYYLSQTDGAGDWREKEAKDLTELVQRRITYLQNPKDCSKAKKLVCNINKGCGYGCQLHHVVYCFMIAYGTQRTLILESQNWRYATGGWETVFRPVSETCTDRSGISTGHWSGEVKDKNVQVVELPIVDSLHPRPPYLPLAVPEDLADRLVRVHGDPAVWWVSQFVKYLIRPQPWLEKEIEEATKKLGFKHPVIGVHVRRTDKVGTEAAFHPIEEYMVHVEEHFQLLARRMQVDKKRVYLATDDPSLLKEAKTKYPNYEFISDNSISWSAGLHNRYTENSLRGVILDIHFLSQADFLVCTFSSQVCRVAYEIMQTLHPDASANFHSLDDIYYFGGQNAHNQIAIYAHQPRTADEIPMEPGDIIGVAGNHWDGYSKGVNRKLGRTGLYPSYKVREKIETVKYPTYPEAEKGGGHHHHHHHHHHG


biological target: T1, soluble and secreted FUT8 (sFUT8) …; test: cell-based or functional assay

FUT8 enzymatic activity (% inhibition) [%] | Binder
60 | anti-FUT8 monoclonal antibody 1H9 (hybridoma) (antibody, V domains shown) VH: EVQLQQSGPELVKPGASVKMSCKASGYIFTDYVMHWVKQSNGKSLEWIGYINPYNDYSNYNQKFKGKATLTVDKSSNTAYMQLNSLTSEDSAVYFCARSGDVWLAYWGQGTLVTISA VL: DIVLTQSPASLAISLGQRATISCRASKSVSTSGYSYMHWYQQKPGQPPRLLIYLASNLESGVPARFSGSGSGTDFTLNIHPVEEEDGATYYCQHSRELPWTFGGGT
87 | anti-FUT8 monoclonal antibody 5C9 (hybridoma) (antibody, V domains shown) VH: QVQLKESGPGLVAPSQSLSITCTVSGFSLTGYGVNWVRQPPGKGLEWLGTIWGDGSTDYNSALKSRLSISKDNSKTQVFLKMHSLQTDDTAIYYCARGGYDDYFGYAMDYWGQGTSVTVSS VL: DIVMTQSQKFMSTVVGDRVSVTCKASQNVGTNVAWYQQKPGQSPKALIYSASYRYSGVPDRLTGSGSGTDFTLTFSYVQSEDLAEYFCQQYYTYPYTFGGGTKLEIK
82 | anti-FUT8 monoclonal antibody 1D2 (hybridoma) (antibody, V domains shown) VH: QVQLKESGPGLVAPSQSLSITCTVSGFSLTGYGVNWVRQPPGKGLEWLGMIWGDGSTDYNSALKSRLSISKDNSKSQVFLKMNSLQTDDTASYYCARDFYDGYLYAMDYWGQGTSVTVSSAS VL: DIVMTQSQKFMSTSLGDRVSVTCKASQNVGSYVAWYQQKPGQSPKALIYSASYRYSGVPDRFAGSGSGTDFTLTISNVQSEDLAEYFCQQYYTYPYTFGGGTWSTRLASWAFRSL
